Here are results for two molecules from patent publication US20240239894A1, “THERAPEUTIC BINDING MOLECULES” (MedImmune Limited, priority 2020, published 2024).

Entries after “also recorded” stand apart in the source; their conditions may differ.

One data set concerns SKBR-3 cells. Briefly: Caspase 3/7 activity (IncuCyte). The format is cell-based, human. As for the experimental part: SKBR-3 cells were treated with E02-GL-SG3249, SG3199 and Olaparib (control) and monitored for caspase 3/7 activity (e.g. apoptosis) by IncuCyte.
A further data set in a line: Toxicology study. The format is in vivo. The conditions noted are these: male cynomolgus monkeys, N=2/dose level. As for the experimental part:
E02-GL-SG3249 was administered to male cynomolgus monkeys (N═2/dose level). The “E02-GL” antibody has the CDR/VH sequences (e.g. corresponds to) of ZY0EQD-E02 (“GL” means the antibody has been germlined).

For data set [1], the system named is HT29 WT (not expressing B7-H4). Put plainly: Bystander killing in vitro (conditioned medium). The conditions noted are these: donor cells treated 4 days. In kind it is cell-based, human. Here is the method: HT29 B7-H4 expressing cells were treated with E02-GL-SG3249 for 4 days, after which the conditioned medium was removed and added to HT29 WT (i.e. not expressing B7-H4).

The test system of data set [2] is MX-1 breast cancer xenograft. Put plainly: Xenograft efficacy. In kind it is in vivo, CB-17 SCID mice. The conditions noted are these: 10 mg/kg. Here is the method:
The antitumor activity of antibody intermediate E02-INT and E02-GL-SG3932 was investigated in human tumor xenograft mouse models using immunodeficient CB-17 SCID mice.
The effect of E02-GL-SG3932, the isotype-matched control ADC NIP228-SG3932, and E02-INT, the antibody intermediate of E02-GL-SG3932 was evaluated in the MX-1 breast cancer xenograft model. Animals were injected SC with MX-1 cells and after tumors grew in volume to a mean of 270 mm3, animals were randomized and each mouse received an IV injection of test or control articles.

Another data set concerns Zr75-1. Briefly: E02-GL MESF on cell line. In kind it is cell-based.
A further data set concerns the target T1, human B7-H4 (Homo sapiens, UniProt Q7Z7D3).
T1 construct: Human B7H4 ECD; FlagHis10 or FcHis6 (either; equivalent data); made in house
T1 sequence (Q7Z7D3 25-259 limits assumed): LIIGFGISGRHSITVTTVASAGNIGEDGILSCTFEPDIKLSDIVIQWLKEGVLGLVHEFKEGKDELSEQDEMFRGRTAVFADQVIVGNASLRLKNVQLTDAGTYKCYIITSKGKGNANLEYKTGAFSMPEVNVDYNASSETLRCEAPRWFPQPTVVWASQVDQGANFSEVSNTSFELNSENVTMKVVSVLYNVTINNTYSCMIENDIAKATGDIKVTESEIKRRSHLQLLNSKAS
Put plainly: ELISA comparison with 1D11. The format is binding. The conditions noted are these: E02-GL compared with 1D11. Here is the method:
The binding of the anti-B7-H4 antibodies (e.g. intermediate ZY0EQD-E02-GL and anti-B7-H4 mAB D11) to B7-H4 (e.g. human and mouse B7-H4) was measured by ELISA. Recombinant B7-H4-Fc (e.g. Human B7-H4-Fc and mouse B7-H4-Fc) proteins were diluted into DPBS to give 5 ug/ml solution. 50 μL of the diluted stocks was then added Nunc Maxisorp 96 well plates. 50 μL/well DPBS was added to control wells. The antigens were allowed to adsorb to the plates overnight at 4° C., washed once with DPBS and incubated with blocking buffer (3% w/v Marvel in DPBS) at room temperature for 1 hour. The plates were then washed once with PBS and incubated for 1 hour with 6.4 pM-100 nM anti-B7-H4 antibody (e.g. intermediate ZY0EQD-E02-GL or anti-B7-H4 mAb D11) diluted in DPBS containing 1% BSA, 0.3% Triton X-100. The plates were then washed three times with PBS containing 0.1% Tween and incubated with peroxidase-conjugated goat anti-human light chain antibody (Sigma Aldrich, Poole, UK) for 1 hour at room temperature. The plates were then washed five times with PBS containing 0.1% Tween. Following a 5-minute incubation with TMB peroxidase substrate, the reaction was stopped by the addition of 0.5 M H2SO4. Absorbance at 450 nm (A450) was measured using an Envision multilabel plate reader (Perkin Elmer, Seer Green, UK). […]
Background: In an ELISA, binding on a coated surface is turned into a signal by an enzyme label.

Data set [3] concerns SKBR3 cell line (target cell). Briefly: ADCC with primary human NK cells. The format is cell-based. The conditions noted are these: 1 μg/mL; NK cells from healthy donors. The source says: When IgG antibodies bind cell surface antigens via their Fab domains, the Fc portion of the antibodies can engage with FcγRIIIa on natural killer cells. The interaction of the Fc domain with FcγRIIIa induces cross-linking of the FcγRs, which triggers the release of cytotoxic granules containing perforin and granzymes, leading to the death of the target cell, a process called antibody-dependent cellular cytotoxicity (ADCC). The potential of antibody E02-INT and E02-GL-SG3932 to initiate ADCC activity was evaluated utilizing isolated primary human NK cells and the human breast cancer SKBR3 cell line as the target cell.
Next, human breast cancer SK-BR-3 cells were co-cultured with NK cells isolated from six healthy donors in the presence of 1 μg/mL E02-GL-SG3932, antibody intermediate E02-INT, isotype-matched control antibody NIP228, and the isotype-matched control ADC NIP228-SG3932 (FIG. 37). ADCC activity was evaluated by Incycte® Annexin V Dye binding of extracellular surface exposure of phosphatidyl serine on apoptotic cells, yielding a bright and stable red fluorescent signal. The fold-change was based on maximum cell death of non-drug treated NK/SK-BR-3 co-cultured cells. Maximum cell death was calculated by dividing the average red objects in experimental wells by the average maximum cell death in Staurosporine treated SK-BR-3 cells.

Data set [4] relates to B7-H4-negative non-transduced HT29. Put plainly: Flow cytometry binding. The format is cell-based, human. On the technique in general: Flow cytometry measures light scatter and fluorescence of single cells or particles in a stream.
The test system of data set [5] is HEK 293 Jump In TREX cells stably expressing cynomolgus monkey B7-H4. Briefly: Flow cytometry binding. The format is cell-based. An excerpt: (§1) Flow cytometry was used to measure binding of antibody E02-INT to non-transduced HEK 293 Jump In TREX cells and to HEK 293 Jump In TREX cells stably expressing human, murine, or cynomolgus monkey B7-H4.
The subject of data set [6] is non-transduced HEK 293 Jump In TREX cells. Put plainly: Flow cytometry binding. In kind it is cell-based. Conditions: B7-H4-negative.
From the text: as §1

The subject of data set [7] is HEK 293 Jump In TREX cells stably expressing murine B7-H4. Briefly: Flow cytometry binding. In kind it is cell-based. Conditions: listed as E02-INT.
From the text: as §1

Data set [8] concerns HEK 293 Jump In TREX cells stably expressing human B7-H4. Put plainly: Flow cytometry binding. The format is cell-based.
From the text: as §1

B1: E02-GL-SG3249: clone E02-GL (Maia heavy chain backbone) conjugated to the PBD cytotoxin SG3249 (conjugate)
heavy: QVQLQQWGAGLLKPSETLSLACTVYGGSFSGYYWNWIRQPPGKGLEWIGEINHSGSTSYNPSLKSRVTISVDTSKNQFSLKLSSVTAADTAVYYCARVLYNWNVDSWGQGTLVTVSSASTKGPSVFPLAPSSKSTSGGTAALGCLVKDYFPEPVTVSWNSGALTSGVHTFPAVLQSSGLYSLSSVVTVPSSSLGTQTYICNVNHKPSNTKVDKRVEPKSCDKTHTCPPCPAPELLGGPSCVFLFPPKPKDTLMISRTPEVTCVVVDVSHEDPEVKFNWYVDGVEVHNAKTKPREEQYNSTYRVVSVLTVLHQDWLNGKEYKCKVSNKALPAPIEKTISKAKGQPREPQVYTLPPSREEMTKNQVSLTCLVKGFYPSDIAVEWESNGQPENNYKTTPPVLDSDGSFFLYSKLTVDKSRWQQGNVFSCSVMHEALHNHYTQKSLSLSPGK
light: DIQMTQSPSSLSASVGDRVTITCRASQDIRNDVGWYQQKPGKAPKRLIYAASRLQSGVPSRFSGSGSGTEFTLTISSLQPEDFATYYCLQHNSYPRTFGQGTKVEIKRTVAAPSVFIFPPSDEQLKSGTASVVCLLNNFYPREAKVQWKVDNALQSGNSQESVTEQDSKDSTYSLSSTLTLSKADYEKHKVYACEVTHQGLSSPVTKSFNRGEC
As for B1, in the data set on SKBR-3 cells, the “caspase 3/7 activity” value is “dose dependent increase”. Further, the toxicities entry in “Toxicology study” is given as “No abnormal toxicities”. Also, the “viability of HT29 WT after conditioned medium from treated HT29 B7-H4 expressing cells” value in data set [1] is given as “rapid decrease in cell viability”.

B2: E02-GL: germlined ZY0EQD-E02, VH SEQ ID NO: 45, VL SEQ ID NO: 34; antibody intermediate of E02-GL-SG3932 (antibody, V domains shown)
VH: QVQLQQWGAGLLKPSETLSLACTVYGGSFSGYYWNWIRQPPGKGLEWIGEINHSGSTSYNPSLKSRVTISVDTSKNQFSLKLSSVTAADTAVYYCARVLYNWNVDSWGQGTLVTVSS
VL: DIQMTQSPSSLSASVGDRVTITCRASQDIRNDVGWYQQKPGKAPKRLIYAASRLQSGVPSRFSGSGSGTEFTLTISSLQPEDFATYYCLQHNSYPRTFGQGTKVEIK
In the case of B2, the TGI in [2] was −1%. In the data set on Zr75-1, the “E02-GL MESF” value was 80,699 MESF. Also, the “binding (affinity) to human B7-H4 by ELISA” value with human B7-H4 is reported as “significantly better binding; also recorded: significantly stronger binding”. Besides, the “ADCC activity beyond untreated co-cultured cells” value in [3] is “significant increase in ADCC activity”. Besides, the cellular binding result in [4] is on record as “did not bind”; in data set [5], “bound”; in data set [6], “did not bind”; in data set [7] it was “bound; also recorded: reduced compared to cells expressing human or cynomolgus monkey B7-H4”; in data set [8], “bound”.
